Data as given in patent publication US20140017734.

T1: Monoscaffoldin (truncated CipA), Cohesin 2-CBM3a, Q06851
T1 chain: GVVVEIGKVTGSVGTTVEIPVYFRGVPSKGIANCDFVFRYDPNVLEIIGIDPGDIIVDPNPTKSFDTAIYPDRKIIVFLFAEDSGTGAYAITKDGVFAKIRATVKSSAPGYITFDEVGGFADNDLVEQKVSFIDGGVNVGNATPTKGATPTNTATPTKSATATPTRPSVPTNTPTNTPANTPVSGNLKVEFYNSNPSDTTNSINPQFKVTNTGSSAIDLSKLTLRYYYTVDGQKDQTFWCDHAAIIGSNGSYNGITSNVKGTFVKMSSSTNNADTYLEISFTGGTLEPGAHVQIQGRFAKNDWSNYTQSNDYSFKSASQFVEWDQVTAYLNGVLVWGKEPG


Key:
[1] = target: Monoscaffoldin (truncated CipA), Cohesin 2-CBM3a (UniProt Q06851)
[2] = target: T1, Monoscaffoldin (truncated CipA), …

Row | Molecule | yield of soluble sugar from Avicel after 119 hour digestion, with the adaptor relative to without it [1] | yield of soluble sugar from Avicel after 119 hour digestion, with the adaptor relative to without it [2]
1 | Chimera1 of CbhA (CBM4-Ig-GH9-linker1-CBM3b-Doc) | increased by factors of 1.55 and 1.73 | 
2 | wild-type CbhA from Clostridium thermocellum (CBM4-Ig-GH9-linker3-CBM3b-Doc) (protein) MKFRRSICTAVLLAVLLTLLVPTSVFALEDNSSTLPPYKNDLLYERTFDEGLCYPWHTCEDSGGKCSFDVVDVPGQPGNKAFAVTVLDKGQNRWSVQMRHRGLTLEQGHTYRVRLKIWADASCKVYIKIGQMGEPYAEYWNNKWSPYTLTAGKVLEIDETFVMDKPTDDTCEFTFHLGGELAATPPYTVYLDDVSLYDPEYTKPVEYILPQPDVRVNQVGYLPEGKKVATVVCNSTQPVKWQLKNAAGVVVLEGYTEPKGLDKDSQDYVHWLDFSDFATEGIGYYFELPTVNSPTNYSHPFDIRKDIYTQMKYDALAFFYHKRSGIPIEMPYAGGEQWTRPAGHIGIEPNKGDTNVPTWPQDDEYAGIPQKNYTKDVTGGWYDAGDHGKYVVNGGIAVWTLMNMYERAKIRGLDNWGPYRDGGMNIPEQNNGYPDILDEARWEIEFFKKMQVTEKEDPSIAGMVHHKIHDFRWTALGMLPHEDPQPRYLRPVSTAATLNFAATLAQSARLWKDYDPTFAADCLEKAEIAWQAALKHPDIYAEYTPGSGGPGGGPYNDDYVGDEFYWAACELYVTTGKDEYKNYLMNSPHYLEMPAKMGENGGANGEDNGLWGCFTWGTTQGLGTITLALVENGLPATDIQKARNNIAKAADRWLENIEEQGYRLPIKQAEDERGGYPWGSNSFILNQMIVMGYAYDFTGDSKYLDGMFDGISYLLGRNAMDQSYVTGYGERPLQNPHDRFWTPQTSKRFPAPPPGIISGGPNSRFEDPTINAAVKKDTPPQKCFIDHTDSWSTNEITVNWNAPFAWVTAYLDEQYTDSETDKVTIDSPVAGERFEAGKDINISATVKSKTPVSKVEFYNGDTLISSDTTAPYTAKITGAAVGAYNLKAVAVLSDGRRIESPVTPVLVKVIVKPTVKLTAPKSNVVAYGNEFLKITATASDSDGKISRVDFLVDGEVIGSDREAPYEYEWKAVEGNHEISVIAYDDDDAASTPDSVKIFVKQARDVKVQYLCENTQTSTQEIKGKFNIVNTGNRDYSLKDIVLRYYFTKEHNSQLQFICYYTPIGSGNLIPSFGGSGDEHYLQLEFKDVKLPAGGQTGEIQFVIRYADNSFHDQSNDYSFDPTIKAFQDYGKVTLYKNGELVWGTPPGGTEPEEPEEPAIVYGDCNDDGKVNSTDVAVMKRYLKKENVNINLDNADVNADGKVNSTDFSILKRYVMKNIEELPYR |  | increased by a factor of only 1.09
3 | Chimera2 of CbhA (CBM4-Ig-GH9-linker2-CBM3b-Doc) (protein) LEDNSSTLPPYKNDLLYERTFDEGLCYPWHTCEDSGGKCSFDVVDVPGQPGNKAFAVTVLDKGQNRWSVQMRHRGLTLEQGHTYRVRLKIWADASCKVYIKIGQMGEPYAEYWNNKWSPYTLTAGKVLEIDETFVMDKPTDDTCEFTFHLGGELAATPPYTVYLDDVSLYDPEYTKPVEYILPQPDVRVNQVGYLPEGKKVATVVCNSTQPVKWQLKNAAGVVVLEGYTEPKGLDKDSQDYVHWLDFSDFATEGIGYYFELPTVNSPTNYSHPFDIRKDIYTQMKYDALAFFYHKRSGIPIEMPYAGGEQWTRPAGHIGIEPNKGDTNVPTWPQDDEYAGIPQKNYTKDVTGGWYDAGDHGKYVVNGGIAVWTLMNMYERAKIRGLDNWGPYRDGGMNIPEQNNGYPDILDEARWEIEFFKKMQVTEKEDPSIAGMVHHKIHDFRWTALGMLPHEDPQPRYLRPVSTAATLNFAATLAQSARLWKDYDPTFAADCLEKAEIAWQAALKHPDIYAEYTPGSGGPGGGPYNDDYVGDEFYWAACELYVTTGKDEYKNYLMNSPHYLEMPAKMGENGGANGEDNGLWGCFTWGTTQGLGTITLALVENGLPATDIQKARNNIAKAADRWLENIEEQGYRLPIKQAEDERGGYPWGSNSFILNQMIVMGYAYDFTGDSKYLDGMFDGISYLLGRNAMDQSYVTGYGERPLQNPHDRFWTPQTSKRFPAPPPGIISGGPNSRFEDPTINAAVKKDTPPQKCFIDHTDSWSTNEITVNWNAPFAWVTAYLDEQYTDSETDTPTPTATPAPTVTPTPTPAPTPTPTPTPTATPTPTPTPTPTATPTVTATPTPTPSSTPVKVQYLCENTQTSTQEIKGKFNIVNTGNRDYSLKDIVLRYYFTKEHNSQLQFICYYTPIGSGNLIPSFGGSGDEHYLQLEFKDVKLPAGGQTGEIQFVIRYADNSFHDQSNDYSFDPTIKAFQDYGKVTLYKNGELVWGTPPGGTEPEEPEEPAIVYGDCNDDGKVNSTDVAVMKRYLKKENVNINLDNADVNADGKVNSTDFSILKRYVMKNIEELPYR |  | increased by factors of 1.55 and 1.73
